The values that follow come from patent publication US20090187998A1.

This test has as its target wild-type serum response factor (SRF) in mouse heart (mouse) (UniProt Q9JM73). As to the kind of experiment: cell-based or functional assay.
UniProt Q9JM73, sequence (Q9JM73 whole entry): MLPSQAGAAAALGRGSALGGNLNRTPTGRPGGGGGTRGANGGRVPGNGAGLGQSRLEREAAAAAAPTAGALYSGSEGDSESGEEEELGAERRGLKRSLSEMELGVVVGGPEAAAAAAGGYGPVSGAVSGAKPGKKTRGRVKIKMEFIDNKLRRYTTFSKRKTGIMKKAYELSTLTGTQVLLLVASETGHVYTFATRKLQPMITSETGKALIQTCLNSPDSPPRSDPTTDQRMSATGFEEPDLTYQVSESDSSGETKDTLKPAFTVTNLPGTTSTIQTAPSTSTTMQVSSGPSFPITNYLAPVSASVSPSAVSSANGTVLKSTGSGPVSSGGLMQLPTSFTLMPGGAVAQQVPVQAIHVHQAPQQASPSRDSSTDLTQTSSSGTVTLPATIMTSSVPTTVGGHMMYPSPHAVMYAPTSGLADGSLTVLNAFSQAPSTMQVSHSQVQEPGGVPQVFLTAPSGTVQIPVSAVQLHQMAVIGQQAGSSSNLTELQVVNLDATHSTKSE

In turn, “dominant negative mutant form of human SRF (Thr->Ser at position 159 and Lys->Glu at position 163 of SRF) (from UniProt P11831 1-508)” showed an EMSA: binding of SRF in heart protein lysate to the biotin-labeled wild-type SRE probe (Mild-R SRF Tg vs Non-Tg) of 47 % reduced.
